Where a chain is given by its changes, count along the chain named.
B1: DLL3-1G2 mAb (antibody, human IgG1, kappa, V domains shown)
VH: QVQLQQPGAELVRPGASVKLSCKASGYSFTSYWMNWVKQRPGQGLEWIGMIHPSDSETRLNQKFKDKATLTVDKSSSTAYMQLSSPTSEDSAVYYCARWDYYDYAWFAYWGQGTLVTVSA
VL: DVLMTQTPLSLPVSLGDQASISCRSSQSIVHSNGDTYLEWYLQKPGQSPNLLIYKVSNRFSGVPDRFSGSGSGTDFTLKISRVEAEDLGVYHCFQGSHVPWTFGGGTKLEIKR
notes: Chimeric full IgG1: Fab of murine clone 1G2 fused to human IgG1 Fc; also called 抗DLL3单克隆抗体
B2: DLL3-1G2H1L1-M6MV1-1 (bispecific antibody, human IgG1, kappa)
light: QVQLVQSGAELKKPGASVKLSCKASGYSFTSYWMNWVRQAPGQGLEWMGMIHPSDSETRLNQKFKDRVTLTVDKSSSTAYMELSSLTSEDTAVYYCARWDYYDYAWFAYWGQGTLVTVSSGGGGSGGGGSGGGGSDVVMTQTPLSLPVTLGQPASISCRSSQSIVHSNGDTYLEWYLQKPGQSPQLLIYKVSNRFSGVPDRFSGSGSGTDFTLKISRVEAEDVGVYYCFQGSHVPWTFGQGTKVEIKGSGGGGSGGGGSEIVVTQSPATLSVSPGERATLSCRSSTGAVTTSNYANWVQQKPGQAPRGLIGGANKRAPGVPARFSGSLSGDEATLTISSLQSEDFAVYYCALWYSNLWVFGQGTKLEIKRTVAAPSVFIFPPSDEQLKSGTASVVCLLNNFYPREAKVQWKVDNALQSGNSQESVTEQDSKDSTYSLSSTLTLSKADYEKHKVYACEVTHQGLSSPVTKSFNRGECGGSGSCPPCPAPEAAGAPSVFLFPPKPKDTLMISRTPEVTCVVVDVSHEDPEVKFNWYVDGVEVHNAKTKPREEQYNSTYRVVSVLTVLHQDWLNGKEYKCKVSNKALGAPIEKTISKAKGQPREPQVYTLPPSRDELTKNQVSLLCLVKGFYPSDIAVEWESNGQPENNYKTTPPVLDSDGSFFLHSKLTVDKSRWQQGNVFSCSVMHEALHNHYTQKSLSLSPG
heavy: EVQLVESGGGLVQPGGSLRLSCAASGFTFNTYAMNWVRQAPGKGLEWVARIRSKYNNYATYYADSVKGRFTISRDDSKNTLYLQMNSLRAEDTAVYYCARHGNFGSSYVSYFAYWGQGTTVTVSSASTKGPSVFPLAPSSKSTSGGTAALGCLVKDYFPEPVTVSWNSGALTSGVHTFPAVLQSSGLYSLSSVVTVPSSSLGTQTYICNVNHKPSNTKVDKKVEPKSCDKTHTCPPCPAPEAAGAPSVFLFPPKPKDTLMISRTPEVTCVVVDVSHEDPEVKFNWYVDGVEVHNAKTKPREEQYNSTYRVVSVLTVLHQDWLNGKEYKCKVSNKALGAPIEKTISKAKGQPREPQVYTLPPSRDELTKNQVSLLCLVKGFYPSDIAVEWESNGQPENNYKTTPPVLDSDGSFFLHSKLTVDKSRWQQGNVFSCSVMHEALHNHYTQKSLSLSPG
notes: also called DLL3×CD3 BiTE
B3: DLL3-1G2H2L1-M6MV1-1 (bispecific antibody, human IgG1, kappa)
light: B2 light with K13R, M48I, R67K, V68A, T91S
heavy: B2 heavy
notes: also called DLL3×CD3 BiTE

Tests used:
[1] = biological target: T1, 人DLL3蛋白(His标签) (human, UniProt Q9NYJ7 27-479); experiment: ELISA, coated human DLL3 protein 100 ng per well, anti-Fc HRP detection
T1 construct: Bought protein (ACRO); also called 重组人DLL3; human DLL3 protein (His tag); not shown: His tag
T1 sequence (looked up): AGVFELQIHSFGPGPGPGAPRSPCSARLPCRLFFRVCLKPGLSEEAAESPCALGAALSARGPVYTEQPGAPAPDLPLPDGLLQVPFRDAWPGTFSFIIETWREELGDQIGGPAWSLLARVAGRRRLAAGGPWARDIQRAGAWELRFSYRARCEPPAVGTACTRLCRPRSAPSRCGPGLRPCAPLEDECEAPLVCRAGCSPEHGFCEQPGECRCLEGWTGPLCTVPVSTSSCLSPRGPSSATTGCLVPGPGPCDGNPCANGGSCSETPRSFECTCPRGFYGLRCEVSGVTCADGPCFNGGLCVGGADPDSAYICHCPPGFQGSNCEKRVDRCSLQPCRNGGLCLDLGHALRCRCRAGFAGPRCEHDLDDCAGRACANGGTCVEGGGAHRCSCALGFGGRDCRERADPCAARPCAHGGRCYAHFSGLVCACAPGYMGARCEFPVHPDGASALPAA

[2] = biological target: T2, 人CD3蛋白 (human); experiment: ELISA, coated human CD3 protein
T2 chain: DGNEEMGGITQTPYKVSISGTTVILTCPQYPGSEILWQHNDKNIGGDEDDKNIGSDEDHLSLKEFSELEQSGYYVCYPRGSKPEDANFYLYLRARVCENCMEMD

[3] = biological target: T1, 人DLL3蛋白(His标签); experiment: ELISA, coated human DLL3 protein
[4] = biological target: T3, 效应细胞的CD3抗原 (CD3 on Jurkat-NFAT-CD3 cells and human T cells) (human); experiment: cell-based or functional assay
T3 chain: T2 chain

[5] = biological target: T4, 细胞表面表达的DLL3 (H82 and LS174T-DLL3 cells) (human, UniProt Q9NYJ7 27-618); experiment: cell-based or functional assay
T4 sequence (looked up): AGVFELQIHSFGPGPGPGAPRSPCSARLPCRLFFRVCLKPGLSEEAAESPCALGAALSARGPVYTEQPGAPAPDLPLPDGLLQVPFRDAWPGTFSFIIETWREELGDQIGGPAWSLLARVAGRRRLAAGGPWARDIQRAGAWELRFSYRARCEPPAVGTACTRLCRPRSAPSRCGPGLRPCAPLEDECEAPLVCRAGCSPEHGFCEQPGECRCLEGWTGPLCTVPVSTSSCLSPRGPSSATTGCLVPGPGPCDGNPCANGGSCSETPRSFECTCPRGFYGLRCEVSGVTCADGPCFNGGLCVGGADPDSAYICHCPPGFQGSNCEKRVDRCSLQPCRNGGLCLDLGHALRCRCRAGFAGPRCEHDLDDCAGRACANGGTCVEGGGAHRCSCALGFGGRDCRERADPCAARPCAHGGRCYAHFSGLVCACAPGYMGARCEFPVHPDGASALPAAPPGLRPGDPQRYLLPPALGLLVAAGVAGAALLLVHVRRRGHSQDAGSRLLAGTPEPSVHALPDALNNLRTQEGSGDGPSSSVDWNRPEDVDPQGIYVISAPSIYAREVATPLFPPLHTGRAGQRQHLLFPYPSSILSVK

| Binder | EC50 [1] [µg/mL] | EC50 [2] [µg/mL] | EC50 [3] [µg/mL] | CTL EC50 (T cell dependent cytotoxicity on LS174T-DLL3 cells, human T cells, CCK8) [4] [µg/mL] | T cell activation (Jurkat-NFAT-CD3 luciferase reporter) with H82 target cells, EC50 [4] [µg/mL] | T cell activation (Jurkat-NFAT-CD3 luciferase reporter) with LS174T-DLL3 target cells, EC50 [4] [µg/mL] | CTL EC50 (T cell dependent cytotoxicity on LS174T-DLL3 cells, human T cells, CCK8) [5] [µg/mL] | T cell activation (Jurkat-NFAT-CD3 luciferase reporter) with H82 target cells, EC50 [5] [µg/mL] | T cell activation (Jurkat-NFAT-CD3 luciferase reporter) with LS174T-DLL3 target cells, EC50 [5] [µg/mL] |
| --- | --- | --- | --- | --- | --- | --- | --- | --- | --- |
| B1 | 0.0295 | – | – | – | – | – | – | – | – |
| B2 | – | 1.45 | 0.378 | 0.305 | ~4.02 | ~5.47 | 0.305 | ~4.02 | ~5.47 |
| B3 | – | 0.892 | 0.267 | 0.104 | ~1.97 | ~2.7 | 0.104 | ~1.97 | ~2.7 |

Reference: CN116789836A (ZHEJIANG SHIMAI PHARMACEUTICAL CO LTD, dated 2023)
